Test results reported in patent US20180312587A1 (ADURO BIOTECH HOLDINGS EUROPE B V, published 2018).

Tests used:
[1] = molecular target: T1, hSIRPα expressed on primary human cells (human, UniProt P78324 31-504); test: flow cytometry, primary CD14+ enriched monocytes, donor 2
T1 construct: whole, on cells; also called hSIRPα on primary human CD14+ monocytes; on primary human granulocytes
Method: Next, the binding of hSIRPα.50A to hSIRPα expressed on primary human CD14⁺ monocytes was investigated. In addition, the ability of hSIRPα.50A to block the interaction between hSIRPα and recombinant hCD47/Fc-protein was assessed. For this purpose, CD14+ monocytes were isolated from Ficoll-purified human peripheral blood mononuclear cells (PBMCs) using RosetteSep human monocyte enrichment cocktail (Stemcell). The percentage of monocytes present after the enrichment was determined by flow cytometry on the FACSVerse (BD Biosciences) based on CD14 staining using an APC-Cy7-conjugated mouse-anti-human CD14 detection antibody (BD Biosciences). […] After this labeling procedure, cells were washed two times, resuspended in PBS/1% BSA containing 0.1 μg/mL DAPI (BioLegend), and analysed by flow cytometry on the FACSVerse (BD Biosciences). Data were processed and analysed with FlowJo V10 software (FlowJo, LLC).
To assess the blocking ability of hSIRPα.50A, CD14+ enriched monocytes cells were seeded in 96-well round bottomed tissue culture plates and incubated for 45 minutes with FcR Blocking Reagent (Miltenyi Biotec) and hSIRPα.50A antibody (200 μg/mL and dilutions thereof) in PBS/1% BSA at 4° C. […] After this labeling procedure, cells were washed two times, resuspended in PBS/1% BSA containing 0.1 μg/mL DAPI (BioLegend), and analysed by flow cytometry on the FACSVerse (BD Biosciences). […]

[2] = molecular target: T2, hSIRP-VγC1βC2β (human, UniProt O00241 30-398); test: CELISA, CHO-K1 transfectants, domain exchange study
T2 chain: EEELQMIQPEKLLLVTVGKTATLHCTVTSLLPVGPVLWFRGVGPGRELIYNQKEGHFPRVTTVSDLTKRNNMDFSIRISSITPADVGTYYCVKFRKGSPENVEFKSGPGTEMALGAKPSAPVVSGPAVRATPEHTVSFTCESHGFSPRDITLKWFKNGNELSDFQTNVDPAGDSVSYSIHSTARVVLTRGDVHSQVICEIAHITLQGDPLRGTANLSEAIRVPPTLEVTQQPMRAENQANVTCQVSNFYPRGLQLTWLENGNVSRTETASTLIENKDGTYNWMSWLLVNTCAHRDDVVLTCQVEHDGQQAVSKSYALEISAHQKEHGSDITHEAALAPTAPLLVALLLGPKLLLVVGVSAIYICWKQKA
Description: Based on the fold of SIRPα/β1/γ, the extracellular region can be subdivided into three separate domains: the Ig-like (immunoglobulin-like) V-type (IgV), Ig-like C1-type (IgC1), and Ig-like C2-type (IgC2) domain. The IgV domain is also known as the ligand-binding N-terminal domain of SIRPα and SIRPγ (which binds to CD47). The human SIRPβ1/γ mutants were designed based on the full length hSIRPβ1 sequence (SEQ ID NO: 38) and each individual Ig-like domain was substituted for the equivalent domain of human SIRPγ (SEQ ID NO: 40). […] Binding of hSIRPα.40A to the exchange mutants was tested using CELISA. To this end, CHO-K1 cells were transiently transfected, using Lipofectamine 2000, with the pCI-neo vectors encoding hSIRPαV1, hSIRPαV2, hSIRPβ1, hSIRP-VγC1βC2β, hSIRP-VβC1γC2β, and hSIRP-VβC1βC2γ, respectively. The transfected cells were cultured at 37° C., 5% CO₂ and 95% humidity in medium (DMEM-F12 (Gibco) with 5% New Born Calf serum (Biowest) and Pen/Strep (Gibco)) until confluent. Subsequently, cells were trypsinized and seeded in 96-well flat-bottom tissue culture plates and cultured at 37° C., 5% CO₂ and 95% humidity in culture medium until confluent. Then, culture medium was removed and cells were incubated for 1 hour at 37° C., 5% CO₂ and 95% humidity with hSIRPα.40A, hSIRPα.50A, and anti-hSIRPα clone SE5A5 antibodies. Next, cells were washed with PBS-T and incubated for 1 hour at 37° C., 5% CO₂ and 95% humidity with goat-anti-mouse IgG-HRP conjugate (Southern Biotech). After that, cells were washed three times with PBS-T and anti-hSIRPα immunoreactivity was visualized with TMB Stabilized Chromogen (Invitrogen). Reactions were stopped with 0.5 M H₂SO₄ and absorbances were read at 450 and 610 nm.

[3] = molecular target: T1, hSIRPα expressed on primary human cells; test: flow cytometry, blockade of DyLight488-hCD47/Fc binding to CD14+ enriched monocytes, donor 2
Method: To assess the blocking ability of hSIRPα.50A, CD14+ enriched monocytes cells were seeded in 96-well round bottomed tissue culture plates and incubated for 45 minutes with FcR Blocking Reagent (Miltenyi Biotec) and hSIRPα.50A antibody (200 μg/mL and dilutions thereof) in PBS/1% BSA at 4° C. […] After this labeling procedure, cells were washed two times, resuspended in PBS/1% BSA containing 0.1 μg/mL DAPI (BioLegend), and analysed by flow cytometry on the FACSVerse (BD Biosciences). Data were processed and analysed with FlowJo V10 software (FlowJo, LLC). […] IC50 values represent the concentration at which half of the inhibition is observed.

T1 sequence (P78324 31-504): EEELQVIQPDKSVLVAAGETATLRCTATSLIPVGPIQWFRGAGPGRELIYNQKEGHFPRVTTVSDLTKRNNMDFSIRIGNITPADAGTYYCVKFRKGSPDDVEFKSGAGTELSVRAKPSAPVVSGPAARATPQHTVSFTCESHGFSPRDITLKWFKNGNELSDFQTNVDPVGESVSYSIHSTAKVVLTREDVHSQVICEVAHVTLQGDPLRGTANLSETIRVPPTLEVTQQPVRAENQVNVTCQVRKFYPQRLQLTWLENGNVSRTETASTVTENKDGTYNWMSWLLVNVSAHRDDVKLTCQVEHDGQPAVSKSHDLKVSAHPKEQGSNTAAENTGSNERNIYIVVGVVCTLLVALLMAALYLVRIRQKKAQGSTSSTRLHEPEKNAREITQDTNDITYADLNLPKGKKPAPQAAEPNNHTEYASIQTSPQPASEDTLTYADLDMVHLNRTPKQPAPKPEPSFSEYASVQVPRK

EC50 [1]: 3.08 nM
EC50 [2]: 2.52 nM
IC50 [3]: 1.03 nM
B1: hSIRPα.50A (antibody, V domains shown)
VH: QVQLQQSGPELVKPGASVRISCKASGFTFTNYYIHWVKQRPGQGLEWIGWIYPGNVNTKYNEKFKAKATLTADKSSTTAYMQLSSLASEDSAVYFCARPTIIATDFDVWGAGTTVTVSS
VL: DIVMTQSHKFMSTSVGDRVNITCKASQGVGTAVGWYQQKPGQSPRLLIYWASTRHTGVPDRFTGSGSGTDFSLAISNVQSEDLADYFCQQYSTYPFTFGGGTNLEIK
notes: light chain constant domain not tied; also called mouse hSIRPα.50A; hSIRPα.50A.mIgG1
